Patent US7244836 (Genentech, dated 2007)
Values belong to the binder of their own block, whether it stands above or below them.

Legend:
[1] = target: T1, GST-TRAF2 fusion protein (murine, UniProt P39429 1-501); assay: GST-TRAF2 beads incubated with 293/TNF-R2 cell lysate; SDS-PAGE and Western blot with anti-hTNF-R2 antibody
T1 construct: Expressed in E. coli in the presence of 1 mM ZnCl2; also called GST-TRAF2 fusion protein beads; not shown: glutathione S-transferase as encoded by vector pGEX-2TK, with the vector's linker
T1 sequence: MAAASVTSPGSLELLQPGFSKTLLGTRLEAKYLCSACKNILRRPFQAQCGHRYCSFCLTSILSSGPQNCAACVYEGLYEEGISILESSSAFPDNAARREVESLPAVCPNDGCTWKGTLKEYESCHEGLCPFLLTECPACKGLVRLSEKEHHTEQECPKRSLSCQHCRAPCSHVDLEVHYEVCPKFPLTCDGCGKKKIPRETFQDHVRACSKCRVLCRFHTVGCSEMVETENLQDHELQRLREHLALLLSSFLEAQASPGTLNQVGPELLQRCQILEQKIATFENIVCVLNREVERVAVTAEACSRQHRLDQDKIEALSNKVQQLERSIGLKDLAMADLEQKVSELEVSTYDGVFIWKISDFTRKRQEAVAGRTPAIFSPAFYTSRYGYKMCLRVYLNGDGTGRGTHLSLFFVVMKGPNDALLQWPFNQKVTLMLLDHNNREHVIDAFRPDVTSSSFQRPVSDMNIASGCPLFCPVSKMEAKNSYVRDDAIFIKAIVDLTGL
Experimental: FIG. 16. […] Reactions were analyzed by SDS-PAGE and Western blot analysis using anti-human TNF-R1 monoclonal antibody 986 (0.5 μg/ml) and anti-human TNF-R2 monoclonal antibody 1036 (0.5 μg/ml). An arrow indicates the 75-80 kd hTNF-R2 band that is coprecipitated specifically with the GST-TRAF2 fusion protein. Molecular weight markers are indicated on the right in kd.
An expression vector encoding a GST-TRAF2 fusion protein was constructed. The TRAF2 coding region was amplified from pPC86TRAF2 by PCR with Pfu DNA polymerase as described above using the oligonucleotide primers 5'-[…] TTGT-3' (SEQ. ID. NO: 53) and 5'-[…]-3' (SEQ. ID. NO: 54). The amplified 1.6 kb DNA fragment was blunt-ended using *E. coli* DNA polymerase I, digested with BamHI and cloned into BamHI/SmaI-digested pGEX-2TK vector. The GST-TRAF2 fusion protein was expressed in the presence of 1 mM ZnCL_2 and purified as described above. […] Primary antibodies directed against the extracellular domains of hTNF-R2 and hTNF-R1 (as a control) were used at a concentration of 0.5 µg/ml and the secondary sheep anti-mouse horseradish peroxidase conjugate (Amersham) at a dilution of 1:6000.

[2] = target: T2, TNF Receptor Associated Factor 1, purified from CT6 cells (murine, UniProt P39428 1-409, N-terminally blocked (so in the source); nature of the block not stated)); assay: band eluted specifically from the GST-hTNF-R2icd affinity column and identified by peptide sequencing; association may be indirect (through TRAF2)
T2 construct: also called TRAF1; protein band at 45-50 kd
T2 sequence: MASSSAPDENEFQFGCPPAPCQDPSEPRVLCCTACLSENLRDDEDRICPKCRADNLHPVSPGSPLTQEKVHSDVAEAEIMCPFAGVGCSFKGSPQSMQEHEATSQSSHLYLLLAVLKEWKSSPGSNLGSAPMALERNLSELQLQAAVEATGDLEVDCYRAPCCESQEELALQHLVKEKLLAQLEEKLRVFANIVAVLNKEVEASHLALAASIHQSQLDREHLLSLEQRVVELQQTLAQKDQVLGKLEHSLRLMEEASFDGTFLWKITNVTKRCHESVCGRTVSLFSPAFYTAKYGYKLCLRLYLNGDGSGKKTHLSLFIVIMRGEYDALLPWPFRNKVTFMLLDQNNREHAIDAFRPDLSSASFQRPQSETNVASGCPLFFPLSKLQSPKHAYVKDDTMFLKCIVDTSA
Experimental: For large scale purification of hTNF-R2icd associated factors 60 l of CT6 cells (3×10^10 cells) were harvested and washed twice with cold PBS. All subsequent operations were carried out at 4° C. The cells were lysed by adding 120 ml of 0.1% NP40 lysis buffer containing 100 mM NaCl and rocked gently for 30 min. Insoluble material was removed by centrifugation for 10 min at 10,000×g. The supernatant was then centrifuged at 100,000×g for 1 hr and dialyzed against lysis buffer containing 500 mM NaCl. All subsequent purification steps were carried out in lysis buffer containing 500 mM NaCl. The cell lysate was passed through a 15 ml glutathione-agarose GST-hTNF-R2icd(-37) fusion protein preabsorption column. The flow-through was applied to a 0.3 ml Affigel10/15 GST-hTNF-R2icd fusion protein affinity column. For control, the lysate was run through a similar Affigel10/15 GST-hTNF-R2icd(-37) fusion protein affinity column in parallel. After extensive washing, proteins bound to the resins were eluted with five column volumes of ImmunoPure Gentle Ag1Ab Elution Buffer (Pierce) containing, 0.1 M DTT, precipitated with Methanol/Chloroform and resuspended in SDS sample buffer containing 5% SDS. One tenth of the material was separated by SDS-PAGE under reducing conditions and visualized by silver staining (FIG. 9).

[3] = target: T3, GAL4(TA)-TRAF1 co-expressed with directly expressed TRAF2 (yeast; murine, UniProt P39428 2-409; P39429 1-501, limits assumed); assay: yeast three-component assay with TRAF2 (no NLS) expressed directly; growth on trp- leu- his- medium with 20 mM 3-aminotriazole
T3 construct: also called GAL4(TA)-TRAF1 + TRAF2; pPC86TRAF1 with pPCTRAF2
T3 sequence 1: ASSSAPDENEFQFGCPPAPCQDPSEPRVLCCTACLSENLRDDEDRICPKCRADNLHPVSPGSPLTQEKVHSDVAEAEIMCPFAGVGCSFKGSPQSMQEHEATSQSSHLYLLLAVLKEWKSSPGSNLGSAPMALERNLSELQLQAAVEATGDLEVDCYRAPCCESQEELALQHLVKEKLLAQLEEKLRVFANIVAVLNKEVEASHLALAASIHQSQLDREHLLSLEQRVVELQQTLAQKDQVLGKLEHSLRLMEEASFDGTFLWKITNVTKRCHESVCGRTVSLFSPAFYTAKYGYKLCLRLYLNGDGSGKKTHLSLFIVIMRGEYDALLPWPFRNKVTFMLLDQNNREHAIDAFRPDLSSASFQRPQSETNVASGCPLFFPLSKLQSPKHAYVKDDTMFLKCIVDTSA
T3 sequence 2: T1 sequence
Experimental: HF7c cells were sequentially transformed with plasmids (see text) encoding the indicated GAL4 DNA-binding domain (DB) fusion proteins, the GAL4 transcriptional activation domain (TA) TRAF1 fusion protein, and TRAF2 or TRAF2 fused to the simian virus 40 large tumor antigen nuclear localization signal (NLS). The final transformation mixtures were plated onto synthetic dextrose plates lacking trp, leu, his and containing 20 mM 3-aminotriazole. Plus signs indicate growth of transformed yeast colonies on the respective plates. *See Table 2.

B2: GST-hTNF-R2icd fusion protein (other, human, UniProt P20333 288-461, looked up)
chain: KKKPLCLQREAKVPHLPADKARGTQGPEQQHLLITAPSSSSSSLESSASALDRRAPTRNQPQAPGVEASGAGEARASTGSSDSSPGGHGTQVNVTCIVNVCSSSDHSSQCSSQASSTMGDTDSSPSESPKDEQVPFSKEECAFRSQLETPETLLGSTEEKPLPLGVPDAGMKPS
notes: domain: intracellular domain; Expressed in E. coli; also called pGST-hTNF-R2icd; wild type (wt) GST-hTNF-R2icd; not shown: glutathione S-transferase as encoded by vector pGEX-2TK (Pharmacia), with the vector's linker up to the BamHI site
binding result [2]: binds

B4: GAL4 DNA-binding domain fused to the intracellular domain of the murine TNF-R2 (other, yeast;murine, UniProt P04386 1-147, looked up)
chain: MKLLSSIEQACDICRLKKLKCSKEKPKCAKCLKNNWECRYSPKTKRSPLTRAHLTEVESRLERLEQLFLLIFPREDLDMILKMDSLQDIKALLTGLFVQDNVNKDAVTDRLASVETDMPLTLRQHRISATSSSEESSNKGQRQLTVSKKKPSCLQRDAKVPHVPDEKSQDAVGLEQQHLLTTAPSSSSSSLESSASAGDRRAPPGGHPQARVMAEAQGFQEARASSRISDSSHGSHGTHVNVTCIVNVCSSSDHSSQCSSQASATVGDPDAKPSASPKDEQVPFSQEECPSQSPCETTETLQSHEKPLPLGVPDMGMKPSQAGWFDQIAVKVA
notes: also called GAL4(DB)-mTNF-R2icd; pPC97-mTNF-R2icd
binding result [3]: binds

The next lines start with the values.

binding result [1]: binds
B1: human type 2 TNF receptor, wild type full length (receptor, UniProt P20333 23-461, looked up)
chain: LPAQVAFTPYAPEPGSTCRLREYYDQTAQMCCSKCSPGQHAKVFCTKTSDTVCDSCEDSTYTQLWNWVPECLSCGSRCSSDQVETQACTREQNRICTCRPGWYCALSKQEGCRLCAPLRKCRPGFGVARPGTETSDVVCKPCAPGTFSNTTSSTDICRPHQICNVVAIPGNASMDAVCTSTSPTRSMAPGAVHLPQPVSTRSQHTQPTPEPSTAPSTSFLLPMGPSPPAEGSTGDFALPVGLIVGVTALGLLIIGVVNCVIMTQVKKKPLCLQREAKVPHLPADKARGTQGPEQQHLLITAPSSSSSSLESSASALDRRAPTRNQPQAPGVEASGAGEARASTGSSDSSPGGHGTQVNVTCIVNVCSSSDHSSQCSSQASSTMGDTDSSPSESPKDEQVPFSKEECAFRSQLETPETLLGSTEEKPLPLGVPDAGMKPS
notes: whole, on cells; Whole receptor made by transfected cells, assayed after detergent lysis, not on intact cells; also called hTNF-R2; 75-80 kd hTNF-R2

binding result [3]: binds
B3: GAL4 DNA-binding domain fused to the intracellular domain of human TNF-R2 (other, yeast;human, UniProt P04386 1-147, looked up)
chain: MKLLSSIEQACDICRLKKLKCSKEKPKCAKCLKNNWECRYSPKTKRSPLTRAHLTEVESRLERLEQLFLLIFPREDLDMILKMDSLQDIKALLTGLFVQDNVNKDAVTDRLASVETDMPLTLRQHRISATSSSEESSNKGQRQLTVSKKKPLCLQREAKVPHLPADKARGTQGPEQQHLLITAPSSSSSSLESSASALDRRAPTRNQPQAPGVEASGAGEARASTGSSDSSPGGHGTQVNVTCIVNVCSSSDHSSQCSSQASSTMGDTDSSPSESPKDEQVPFSKEECAFRSQLETPETLLGSTEEKPLPLGVPDAGMKPS
notes: also called GAL4(DB)-hTNF-R2icd; pPC97-hTNF-R2icd
